The values that follow come from patent publication US20230381316A1 (published 2023).

Experiment [1] concerns the target T1, purified recombinant human PSMA protein (PSMA extracellular domain, baculovirus-insect cell expression) (UniProt Q04609 44-750). Kind of experiment: SPR (Biacore). (In SPR one partner is held on a chip, and binding of the other changes the refractive index at the surface.)
Experiment [2] concerns the target T1, purified recombinant human PSMA protein …. Kind of experiment: SPR (Biacore); Bivalent fit.
For experiment [3] the target is unchanged. Kind of experiment: SPR (Biacore); Langmuir fit.
The target of experiment [4] is PSMA. Kind of experiment: previously reported; previously reported value.

T1 sequence (Q04609 44-750): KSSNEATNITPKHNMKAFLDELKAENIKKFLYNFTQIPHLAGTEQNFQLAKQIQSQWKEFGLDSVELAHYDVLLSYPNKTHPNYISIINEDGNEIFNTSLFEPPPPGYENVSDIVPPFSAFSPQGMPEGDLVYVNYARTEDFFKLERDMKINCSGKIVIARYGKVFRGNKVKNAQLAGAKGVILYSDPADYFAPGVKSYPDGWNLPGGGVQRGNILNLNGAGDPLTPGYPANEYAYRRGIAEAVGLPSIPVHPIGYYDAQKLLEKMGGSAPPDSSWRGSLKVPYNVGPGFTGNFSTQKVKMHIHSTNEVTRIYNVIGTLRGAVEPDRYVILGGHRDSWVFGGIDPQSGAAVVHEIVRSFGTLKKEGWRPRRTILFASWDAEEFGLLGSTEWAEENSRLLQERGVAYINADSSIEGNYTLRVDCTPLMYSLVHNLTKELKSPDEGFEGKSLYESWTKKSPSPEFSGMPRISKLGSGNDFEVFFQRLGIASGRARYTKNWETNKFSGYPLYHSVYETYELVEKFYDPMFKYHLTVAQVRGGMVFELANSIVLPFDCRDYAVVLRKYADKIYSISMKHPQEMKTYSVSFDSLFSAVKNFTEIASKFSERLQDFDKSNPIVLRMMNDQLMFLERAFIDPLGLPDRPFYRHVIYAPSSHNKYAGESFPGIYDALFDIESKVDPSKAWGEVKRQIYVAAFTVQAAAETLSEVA

B1: anti-PSMA mouse monoclonal antibody #1377 (antibody, V domains shown)
VH: VQLQQPGAALVRPGASVRLSCKASGYSFTYYWMNWVMQRPGQGLEWIGMIHPSDSETRLSQKFRDKATLTVDKSSSTVYMQLNSPTSDDSAVYYCARDGNFPYYALDYWGQGTSVTVSS
VL: DVVLTQAPLSLPVSLGDQASISCRSSQSLEYSNGNTYLHWYLQKPGQSPELLIYTVSNRFSGVPDRFSGSGSGTDFTLKIHRVEAEDLGVYFCSQSTHVPTFGGGTKLEIKR
As to B1, the Kd in experiment [1] and in experiment [2] was 18.6 nM throughout.

B2: ScFv Fc 444 (antibody, V domains shown)
VH: VQLQQSGPELEKPGASVKMSCKASGYSFTGYNVNWVRQNNGKSLEWIGNIDPLHGGTTYNQKFKAKATLTVDRSSSTAYLQLKNLTSEDSAVYYCARSSRFDYWGQGTTLTVSS
VL: DIVMTQSHKFMSTSVGDRVNITCKASQDVGTAVAWYQQKPGQSPKLLIYWASTRHTGVPDRFTGSGSGTDFTLTISNVQSEDLADYFCHQFTSYPFTFGSGTSLEMKR
For the molecule B2, in experiment [2], the Kd was 4.35 nM.

B3: anti-PSMA mouse monoclonal antibody #219 (antibody, V domains shown)
VH: VQLQQSGPELEKPGASVKMSCKASGYSFTGYNVNWVRQNNGKSLEWIGNIDPLHGGTTYNQKFKAKATLTVDRSSSTAYLQLKNLTSEDSAVYYCARSSRFDYWGQGTTLTVSS
VL: DIVMTQSHKFMSTSVGDRVNITCKASQDVGTAVAWYQQKPGQSPKLLIYWASTRHTGVPDRFTGSGSGTDFTLTISNVQSEDLADYFCHQFTSYPFTFGSGTSLEMKR
Turning to B3, the Kd in experiment [1] and in experiment [3] was 2.64 nM each time.

B4: anti-PSMA mouse monoclonal antibody #1352 (antibody, V domains shown)
VH: VKLQQSGPELEKPGASVKISCKASGYSFTGYNVNWVKQSNGKSLEWIGNIDPYHGGTTYNQKFEAKATLTVDKSSSTAYMQLKSLTSEDSAVYYCARSSRFDYWGQGTTLTVSS
VL: DIVMTQSHKFMSTSVGDRVNITCKASQDVGTAVAWYQQKPGQSPKFLIYWASTRHTGVPDRFTGSGSGTDFTLTISNVQSEDLADYFCHQYTSYPFTFGSGTKLEMKR
Take B4: the Kd in experiment [1] and in experiment [2] was 1.99 nM throughout.

B5: ScFv Fc 446 (antibody, V domains shown)
VH: VKLQESGPGLVAPSQSLSITCTVSGFSLTDYGVSWIRQPPGKGLEWLGVIWSDGNTYYNSPLKSRLSINKDNSKSQVFLKMNSLQTDDSAMYYCARHKVYTMDYWGQGTSVTVSS
VL: TVLTQSPAIMSASPGEKVTMTCRASSSVSSSYLHWYQQKSSASPKLWIYRTSNLASGVPARFSGSGSGTSYSLTISSLEAEDAATYYCQQYSGYPLTFGAGTKLELKR
For B5, the Kd in experiment [2] amounted to 1160 nM.

B6: anti-PSMA mouse monoclonal antibody #1366 (antibody, V domains shown)
VH: VKLQESGPGLVAPSQSLSITCTVSGFSLTDYGVSWIRQPPGKGLEWLGVIWSDGNTYYNSPLKSRLSINKDNSKSQVFLKMNSLQTDDSAMYYCARHKVYTMDYWGQGTSVTVSS
VL: TVLTQSPAIMSASPGEKVTMTCRASSSVSSSYLHWYQQKSSASPKLWIYRTSNLASGVPARFSGSGSGTSYSLTISSLEAEDAATYYCQQYSGYPLTFGAGTKLELKR
On to B6, for which the Kd in experiment [1] and in experiment [2] was 295 nM each time.

B7: anti-PSMA mouse monoclonal antibody #1207 (antibody, V domains shown)
VH: VKLQQSGPGLVKPSQSLSLTCAVTGYSITSDYAWNWIRKFPGNKLEWMGYISYSGRTTYNPSLESRISITRDTSKNQFFLQLNSVTTEDTATYYCARCYYGSSSRWYGMDYWGRGTSVAVSS
VL: IVLTQSPAIMSASPGVKVTMTCRASSSVDSSYLHWYQQKSGASPQVWIYSTSNLASGVPARFSGSGSGTSYSLTISSVEAEDAATYYCQQYSGYPLTFGGGTKLEIKR
In the case of B7, the Kd in experiment [1] and in experiment [2] was 8.13 nM throughout.

B8: J591 (antibody, V domains shown)
VH: EVQLQQSGPELVKPGTSVRISCKTSGYTFTEYTIHWVKQSHGKSLEWIGNINPNNGGTTYNQKFEDKATLTVDKSSSTAYMELRSLTSEDSAVYYCAAGWNFDYWGQGTTLTVSS
VL: DIVMTQSHKFMSTSVGDRVSIICKASQDVGTAVDWYQQKPGQSPKLLIYWASTRHTGVPDRFTGSGSGTDFTLTITNVQSEDLADYFCQQYNSYPLTFGAGTMLDLK
In experiment [4], B8 gave a Kd of 1.83 nM.

B9: ScFv Fc 445 (antibody)
chain: VQLQQPGAALVRPGASVRLSCKASGYSFTYYWMNWVMQRPGQGLEWIGMIHPSDSETRLSQKFRDKATLTVDKSSSTVYMQLNSPTSDDSAVYYCARDGNFPYYALDYWGQGTSVTVSSGGGGSGGGGSGGGGSDVVLTQAPLSLPVSLGDQASISCRSSQSLEYSNGNTYLHWYLQKPGQSPELLIYTVSNRFSGVPDRFSGSGSGTDFTLKIHRVEAEDLGVYFCSQSTHVPTFGGGTKLEIKR
Turning to B9, in experiment [2], the Kd amounted to 2.55 nM.
